In IntAct's records for PubMed 35512704:

B1: Speckle-type POZ protein (Homo sapiens), O43791 (parent)
chain: MSRVPSPPPPAEMSSGPVAESWCYTQIKVVKFSYMWTINNFSFCREEMGEVIKSSTFSSGANDKLKWCLRVNPKGLDEESKDYLSLYLLLVSCPKSEVRAKFKFSILNAKGEETKAMESQRAYRFVQGKDWGFKKFIRRDFLLDEANGLLPDDKLTLFCEVSVVQDSVNISGQNTMNMVKVPECRLADELGGLWENSRFTDCCLCVAGQEFQAHKAILAARSPVFSAMFEHEMEESKKNRVEINDVEPEVFKEMMCFIYTGKAPNLDKMADDLLAAADKYALERLKVMCEDALCSNLSVENAAEILILADLHSADQLKTQAVDFINYHASDVLETSGWKSMVVSHPHLVAEAYRSLASAQCPFLGPPRKRLKQS
partner: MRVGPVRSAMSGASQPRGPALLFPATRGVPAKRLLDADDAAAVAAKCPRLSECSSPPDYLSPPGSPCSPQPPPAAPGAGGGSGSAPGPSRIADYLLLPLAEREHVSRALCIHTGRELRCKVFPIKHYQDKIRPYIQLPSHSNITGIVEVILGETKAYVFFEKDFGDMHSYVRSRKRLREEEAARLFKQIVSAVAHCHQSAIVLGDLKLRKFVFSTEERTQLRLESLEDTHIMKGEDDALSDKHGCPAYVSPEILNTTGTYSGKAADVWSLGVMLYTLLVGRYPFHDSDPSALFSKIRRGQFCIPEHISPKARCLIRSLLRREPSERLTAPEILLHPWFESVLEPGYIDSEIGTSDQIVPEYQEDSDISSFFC
B2: Speckle-type POZ protein (Homo sapiens), O43791 (parent)
chain: B1 chain
partner: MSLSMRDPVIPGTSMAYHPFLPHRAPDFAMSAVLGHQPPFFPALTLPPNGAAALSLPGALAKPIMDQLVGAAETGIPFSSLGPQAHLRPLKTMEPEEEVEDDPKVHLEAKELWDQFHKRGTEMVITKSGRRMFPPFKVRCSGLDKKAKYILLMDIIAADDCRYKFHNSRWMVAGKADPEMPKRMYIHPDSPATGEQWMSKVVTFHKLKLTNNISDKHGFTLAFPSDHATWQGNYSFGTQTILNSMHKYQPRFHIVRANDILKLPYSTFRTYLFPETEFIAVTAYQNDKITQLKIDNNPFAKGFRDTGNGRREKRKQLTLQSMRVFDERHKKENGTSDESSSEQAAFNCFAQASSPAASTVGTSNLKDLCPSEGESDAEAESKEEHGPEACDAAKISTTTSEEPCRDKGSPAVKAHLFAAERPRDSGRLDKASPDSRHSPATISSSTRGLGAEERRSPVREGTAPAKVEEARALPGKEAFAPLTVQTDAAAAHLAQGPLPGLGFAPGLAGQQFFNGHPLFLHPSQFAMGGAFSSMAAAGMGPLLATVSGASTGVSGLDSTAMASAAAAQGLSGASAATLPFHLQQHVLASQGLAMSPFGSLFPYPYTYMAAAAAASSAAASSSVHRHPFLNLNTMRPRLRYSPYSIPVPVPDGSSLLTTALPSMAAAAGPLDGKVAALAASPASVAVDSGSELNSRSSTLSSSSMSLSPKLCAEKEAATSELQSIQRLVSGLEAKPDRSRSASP

Variants of: B1
Settings: with trib1_human TRIB1, Q96RU8

effect of a mutation on the interaction	Variant
with no effect	MSRVPSPPPPAEMSSGPVAESWCYTQIKVVKFSYMWTINNFSFCREEMGEVIKSSTFSSGANDKLKWCLRVNPKGLDEESKDYLSLCLLLVSCPKSEVRAKFKFSILNAKGEETKAMESQRAYRFVQGKDWGFKKFIRRDFLLDEANGLLPDDKLTLFCEVSVVQDSVNISGQNTMNMVKVPECRLADELGGLWENSRFTDCCLCVAGQEFQAHKAILAARSPVFSAMFEHEMEESKKNRVEINDVEPEVFKEMMCFIYTGKAPNLDKMADDLLAAADKYALERLKVMCEDALCSNLSVENAAEILILADLHSADQLKTQAVDFINYHASDVLETSGWKSMVVSHPHLVAEAYRSLASAQCPFLGPPRKRLKQS [Y87C]

Variants of: B1
Settings: with trib1_human TRIB1, Q96RU8
Remark: another data set of the same source

effect of a mutation on the interaction	Variant
causing an interaction	MSRVPSPPPPAEMSSGPVAESWCYTQIKVVKFSYMWTINNFSFCREEMGEVIKSSTFSSGANDKLKWCLRVNPKGLDEESKDYLSLYLLLVSCPKSEVRAKFKFSILNAKGEETKAMESQRAYRFVQGKDWGVKKFIRRDFLLDEANGLLPDDKLTLFCEVSVVQDSVNISGQNTMNMVKVPECRLADELGGLWENSRFTDCCLCVAGQEFQAHKAILAARSPVFSAMFEHEMEESKKNRVEINDVEPEVFKEMMCFIYTGKAPNLDKMADDLLAAADKYALERLKVMCEDALCSNLSVENAAEILILADLHSADQLKTQAVDFINYHASDVLETSGWKSMVVSHPHLVAEAYRSLASAQCPFLGPPRKRLKQS [F133V]

Variants of: B1
Settings: with trib1_human TRIB1, Q96RU8
Remark: another data set of the same source

effect of a mutation on the interaction	Variant
causing an interaction	MSRVPSPPPPAEMSSGPVAESWCYTQIKVVKFSYMWTINNFSFCREEMGEVIKSSTFSSGANDKLKWCLRVNPKGLDEESKDYLSLYLLLVSCPKSEVRAKFKFSILNAKGEETKAMESQRAYRFVQGKDWGLKKFIRRDFLLDEANGLLPDDKLTLFCEVSVVQDSVNISGQNTMNMVKVPECRLADELGGLWENSRFTDCCLCVAGQEFQAHKAILAARSPVFSAMFEHEMEESKKNRVEINDVEPEVFKEMMCFIYTGKAPNLDKMADDLLAAADKYALERLKVMCEDALCSNLSVENAAEILILADLHSADQLKTQAVDFINYHASDVLETSGWKSMVVSHPHLVAEAYRSLASAQCPFLGPPRKRLKQS [F133L]

Variants of: B1
Settings: with trib1_human TRIB1, Q96RU8
Remark: another data set of the same source

effect of a mutation on the interaction	Variant
with no effect	MSRVPSPPPPAEMSSGPVAESWCYTQIKVVKFSYMWTINNFSFCREEMGEVIKSSTFSSGANDKLKWCLRVNPKGLDEESKDYLSLYLLLVSCPKSEVRAKCKFSILNAKGEETKAMESQRAYRFVQGKDWGFKKFIRRDFLLDEANGLLPDDKLTLFCEVSVVQDSVNISGQNTMNMVKVPECRLADELGGLWENSRFTDCCLCVAGQEFQAHKAILAARSPVFSAMFEHEMEESKKNRVEINDVEPEVFKEMMCFIYTGKAPNLDKMADDLLAAADKYALERLKVMCEDALCSNLSVENAAEILILADLHSADQLKTQAVDFINYHASDVLETSGWKSMVVSHPHLVAEAYRSLASAQCPFLGPPRKRLKQS [F102C]

Variants of: B2
Settings: with tbx3_human TBX3, O15119

effect of a mutation on the interaction	Variant
with no effect	MSRVPSPPPPAEMSSGPVAESWCYTQIKVVKFSYMWTINNFSFCREEMGEVIKSSTFSSGANDKLKWCLRVNPKGLDEESKDYLSLCLLLVSCPKSEVRAKFKFSILNAKGEETKAMESQRAYRFVQGKDWGFKKFIRRDFLLDEANGLLPDDKLTLFCEVSVVQDSVNISGQNTMNMVKVPECRLADELGGLWENSRFTDCCLCVAGQEFQAHKAILAARSPVFSAMFEHEMEESKKNRVEINDVEPEVFKEMMCFIYTGKAPNLDKMADDLLAAADKYALERLKVMCEDALCSNLSVENAAEILILADLHSADQLKTQAVDFINYHASDVLETSGWKSMVVSHPHLVAEAYRSLASAQCPFLGPPRKRLKQS [Y87C]

Variants of: B2
Settings: with tbx3_human TBX3, O15119
Remark: another data set of the same source

effect of a mutation on the interaction	Variant
with no effect	MSRVPSPPPPAEMSSGPVAESWCYTQIKVVKFSYMWTINNFSFCREEMGEVIKSSTFSSGANDKLKWCLRVNPKGLDEESKDYLSLYLLLVSCPKSEVRAKFKFSILNAKGEETKAMESQRAYRFVQGKDWGVKKFIRRDFLLDEANGLLPDDKLTLFCEVSVVQDSVNISGQNTMNMVKVPECRLADELGGLWENSRFTDCCLCVAGQEFQAHKAILAARSPVFSAMFEHEMEESKKNRVEINDVEPEVFKEMMCFIYTGKAPNLDKMADDLLAAADKYALERLKVMCEDALCSNLSVENAAEILILADLHSADQLKTQAVDFINYHASDVLETSGWKSMVVSHPHLVAEAYRSLASAQCPFLGPPRKRLKQS [F133V]

Variants of: B2
Settings: with tbx3_human TBX3, O15119
Remark: another data set of the same source

effect of a mutation on the interaction	Variant
with no effect	MSRVPSPPPPAEMSSGPVAESWCYTQIKVVKFSYMWTINNFSFCREEMGEVIKSSTFSSGANDKLKWCLRVNPKGLDEESKDYLSLYLLLVSCPKSEVRAKFKFSILNAKGEETKAMESQRAYRFVQGKDWGLKKFIRRDFLLDEANGLLPDDKLTLFCEVSVVQDSVNISGQNTMNMVKVPECRLADELGGLWENSRFTDCCLCVAGQEFQAHKAILAARSPVFSAMFEHEMEESKKNRVEINDVEPEVFKEMMCFIYTGKAPNLDKMADDLLAAADKYALERLKVMCEDALCSNLSVENAAEILILADLHSADQLKTQAVDFINYHASDVLETSGWKSMVVSHPHLVAEAYRSLASAQCPFLGPPRKRLKQS [F133L]

Variants of: B2
Settings: with tbx3_human TBX3, O15119
Remark: another data set of the same source

effect of a mutation on the interaction	Variant
with no effect	MSRVPSPPPPAEMSSGPVAESWCYTQIKVVKFSYMWTINNFSFCREEMGEVIKSSTFSSGANDKLKWCLRVNPKGLDEESKDYLSLYLLLVSCPKSEVRAKCKFSILNAKGEETKAMESQRAYRFVQGKDWGFKKFIRRDFLLDEANGLLPDDKLTLFCEVSVVQDSVNISGQNTMNMVKVPECRLADELGGLWENSRFTDCCLCVAGQEFQAHKAILAARSPVFSAMFEHEMEESKKNRVEINDVEPEVFKEMMCFIYTGKAPNLDKMADDLLAAADKYALERLKVMCEDALCSNLSVENAAEILILADLHSADQLKTQAVDFINYHASDVLETSGWKSMVVSHPHLVAEAYRSLASAQCPFLGPPRKRLKQS [F102C]
